From publication PMC10434076

Target: Campylobacter jejuni resistance enhancing CmeB (RE-CmeB) multidrug efflux pump (C. jejuni)
Assay: cryo-EM structure; single-particle cryo-EM of 20 uM RE-CmeB in lipidic nanodiscs (MSP 1E3D1, E. coli total extract lipid; 20 mM Tris-HCl pH 7.5, 100 mM NaCl); apo, with fortuitous hydrolyzed ampicillin, or incubated with 1 mM Cip, Ery or Chl for 2 h on ice

Substance: Campylobacter jejuni resistance enhancing CmeB (RE-CmeB) multidrug efflux pump (natural protein)
- stoichiometry N: 3
